± gives the standard deviation of the averaged measurements.
B1: library; a variant is named by its letters at N, in order (parent)
chain: GCUGUCACCGGUGUAUUACCCUAGUGGUCGACCGGUCUGAUGAGUCUNNNNNNAGACGAAACAGC

Legend:
hypoxanthine [1] = variants of: B1; test: FACS-Seq fitted mean relative fluorescence mCherry/BFP without ligand (log10 relative fluorescence); ligand: hypoxanthine (xanthine aptamer); higher = higher reporter protein expression; details: HEK293T, ligand present: no
Summary of the method: (§1)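 HEK293T libraries were lentivirally transduced with an mCherry reporter carrying the ribozyme switch and an EF1α-BFP marker, enriched, and incubated for 48 h with or without ligand before sorting into 6 bins by mCherry/BFP. Genomic DNA from each bin was PCR-amplified, barcoded and sequenced on MiSeq. Fluorescence is the fitted normal mean of the bin counts. The fit used log10(mCherry/BFP), and means were scaled to five spiked-in control ribozymes.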

hypoxanthine [2] = variants of: B1; test: normalized RNA/DNA level with ligand (relative to sTRSVctl = 100) (log10 (% of sTRSVctl)); ligand: hypoxanthine (xanthine aptamer); higher = less ribozyme self-cleavage, higher mRNA level; details: ligand concentration (+) RNA-Seq: 5 mM, HEK293T, reporter: mCherry (pCS4076), ligand present: yes
Summary of the method: (§2)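 Ribozyme switch library plasmids linked to reporters were introduced into HEK293T cells at 4 µg per 6-well well, with ligand, if any, added 1 h before. Total RNA was extracted with EDTA 72 h later, reverse-transcribed, amplified, barcoded and sequenced. RNA level was computed from RNA over DNA reads relative to a spiked-in non-cleaving sequence or the top sequences, then scaled and log-transformed. The top set was 25 sequences, values were ×100 and log10, and the cutoff was ≥100 DNA reads.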

hypoxanthine [3] = variants of: B1; test: normalized RNA/DNA level without ligand (relative to sTRSVctl = 100) (log10 (% of sTRSVctl)); ligand: hypoxanthine (xanthine aptamer); higher = less ribozyme self-cleavage, higher mRNA level; details: HEK293T, reporter: mCherry (pCS4076), ligand present: no
Summary of the method: as §2

hypoxanthine [4] = variants of: B1; test: FACS-Seq fitted mean relative fluorescence mCherry/BFP with ligand (log10 relative fluorescence); ligand: hypoxanthine (xanthine aptamer); ligand concentration (+) FACS-Seq: 5 mM; higher = higher reporter protein expression; details: HEK293T, ligand present: yes
Summary of the method: as §1

GCUGUCACCGGUGUAUUACCCUAGUGGUCGACCGGUCUGAUGAGUCUGAAAAGAGACGAAACAGC [GAAAAG]
FACS-Seq fitted mean (log10) (hypoxanthine [1]): 0.326 ± 0.035
normalized RNA/DNA level with ligand (log10) (hypoxanthine [2]): 1.83 ± 0.0058
normalized RNA/DNA level without ligand (log10) (hypoxanthine [3]): 1.47 ± 0.038
FACS-Seq fitted mean (log10) (hypoxanthine [4]): 0.473 ± 0.036

GCUGUCACCGGUGUAUUACCCUAGUGGUCGACCGGUCUGAUGAGUCUGAGUUGAGACGAAACAGC [GAGUUG]
FACS-Seq fitted mean (log10) (hypoxanthine [1]): 0.0221 ± 0.018
normalized RNA/DNA level with ligand (log10) (hypoxanthine [2]): 1.62 ± 0.1
normalized RNA/DNA level without ligand (log10) (hypoxanthine [3]): 1.14 ± 0.038
FACS-Seq fitted mean (log10) (hypoxanthine [4]): 0.503 ± 0.022

GCUGUCACCGGUGUAUUACCCUAGUGGUCGACCGGUCUGAUGAGUCUGGAAAGAGACGAAACAGC [GGAAAG]
FACS-Seq fitted mean (log10) (hypoxanthine [1]): 0.282 ± 0.038
normalized RNA/DNA level with ligand (log10) (hypoxanthine [2]): 1.8 ± 0.018
normalized RNA/DNA level without ligand (log10) (hypoxanthine [3]): 1.34 ± 0.094
FACS-Seq fitted mean (log10) (hypoxanthine [4]): 0.711 ± 0.029

GCUGUCACCGGUGUAUUACCCUAGUGGUCGACCGGUCUGAUGAGUCUUACGAAAGACGAAACAGC [UACGAA]
FACS-Seq fitted mean (log10) (hypoxanthine [1]): 0.0406 ± 0.024
normalized RNA/DNA level with ligand (log10) (hypoxanthine [2]): 1.9122 ± 0.00026
normalized RNA/DNA level without ligand (log10) (hypoxanthine [3]): 1.69 ± 0.013
FACS-Seq fitted mean (log10) (hypoxanthine [4]): 0.191 ± 0.012

GCUGUCACCGGUGUAUUACCCUAGUGGUCGACCGGUCUGAUGAGUCUAACGCUAGACGAAACAGC [AACGCU]
FACS-Seq fitted mean (log10) (hypoxanthine [1]): 0.624 ± 0.015
normalized RNA/DNA level with ligand (log10) (hypoxanthine [2]): 1.94 ± 0.032
normalized RNA/DNA level without ligand (log10) (hypoxanthine [3]): 1.85 ± 0.023
FACS-Seq fitted mean (log10) (hypoxanthine [4]): 0.548 ± 0.11

GCUGUCACCGGUGUAUUACCCUAGUGGUCGACCGGUCUGAUGAGUCUUAGAAUAGACGAAACAGC [UAGAAU]
FACS-Seq fitted mean (log10) (hypoxanthine [1]): 0.3304 ± 0.003
normalized RNA/DNA level with ligand (log10) (hypoxanthine [2]): 1.9 ± 0.023
normalized RNA/DNA level without ligand (log10) (hypoxanthine [3]): 1.72 ± 0.03
FACS-Seq fitted mean (log10) (hypoxanthine [4]): 0.6203 ± 0.0037

GCUGUCACCGGUGUAUUACCCUAGUGGUCGACCGGUCUGAUGAGUCUGGUAAUAGACGAAACAGC [GGUAAU]
FACS-Seq fitted mean (log10) (hypoxanthine [1]): 0.123 ± 0.061
normalized RNA/DNA level with ligand (log10) (hypoxanthine [2]): 1.918 ± 0.019
normalized RNA/DNA level without ligand (log10) (hypoxanthine [3]): 1.79 ± 0.035
FACS-Seq fitted mean (log10) (hypoxanthine [4]): 0.314 ± 0.036

GCUGUCACCGGUGUAUUACCCUAGUGGUCGACCGGUCUGAUGAGUCUUGGAAUAGACGAAACAGC [UGGAAU]
FACS-Seq fitted mean (log10) (hypoxanthine [1]): -0.0639 ± 0.013
normalized RNA/DNA level with ligand (log10) (hypoxanthine [2]): 1.887 ± 0.0035
normalized RNA/DNA level without ligand (log10) (hypoxanthine [3]): 1.659 ± 0.0056
FACS-Seq fitted mean (log10) (hypoxanthine [4]): 0.205 ± 0.02

GCUGUCACCGGUGUAUUACCCUAGUGGUCGACCGGUCUGAUGAGUCUGAGCGAAGACGAAACAGC [GAGCGA]
FACS-Seq fitted mean (log10) (hypoxanthine [1]): 0.291 ± 0.062
normalized RNA/DNA level with ligand (log10) (hypoxanthine [2]): 1.89 ± 0.03
normalized RNA/DNA level without ligand (log10) (hypoxanthine [3]): 1.497 ± 0.0043
FACS-Seq fitted mean (log10) (hypoxanthine [4]): 0.54 ± 0.037

GCUGUCACCGGUGUAUUACCCUAGUGGUCGACCGGUCUGAUGAGUCUUCAGGGAGACGAAACAGC [UCAGGG]
FACS-Seq fitted mean (log10) (hypoxanthine [1]): 0.486 ± 0.02
normalized RNA/DNA level with ligand (log10) (hypoxanthine [2]): 1.951 ± 0.015
normalized RNA/DNA level without ligand (log10) (hypoxanthine [3]): 1.69 ± 0.065
FACS-Seq fitted mean (log10) (hypoxanthine [4]): 0.704 ± 0.067

GCUGUCACCGGUGUAUUACCCUAGUGGUCGACCGGUCUGAUGAGUCUAGAUGUAGACGAAACAGC [AGAUGU]
FACS-Seq fitted mean (log10) (hypoxanthine [1]): 0.466 ± 0.021
normalized RNA/DNA level with ligand (log10) (hypoxanthine [2]): 1.9 ± 0.037
normalized RNA/DNA level without ligand (log10) (hypoxanthine [3]): 1.56 ± 0.031
FACS-Seq fitted mean (log10) (hypoxanthine [4]): 0.748 ± 0.053

GCUGUCACCGGUGUAUUACCCUAGUGGUCGACCGGUCUGAUGAGUCUGCUUUCAGACGAAACAGC [GCUUUC]
FACS-Seq fitted mean (log10) (hypoxanthine [1]): 0.909 ± 0.14
normalized RNA/DNA level with ligand (log10) (hypoxanthine [2]): 1.959 ± 0.011
normalized RNA/DNA level without ligand (log10) (hypoxanthine [3]): 1.835 ± 0.016
FACS-Seq fitted mean (log10) (hypoxanthine [4]): 0.723 ± 0.024

GCUGUCACCGGUGUAUUACCCUAGUGGUCGACCGGUCUGAUGAGUCUCCAUAUAGACGAAACAGC [CCAUAU]
FACS-Seq fitted mean (log10) (hypoxanthine [1]): 0.286 ± 0.014
normalized RNA/DNA level with ligand (log10) (hypoxanthine [2]): 1.96 ± 0.029
normalized RNA/DNA level without ligand (log10) (hypoxanthine [3]): 1.82 ± 0.057
FACS-Seq fitted mean (log10) (hypoxanthine [4]): 0.542 ± 0.01

GCUGUCACCGGUGUAUUACCCUAGUGGUCGACCGGUCUGAUGAGUCUAACCGAAGACGAAACAGC [AACCGA]
FACS-Seq fitted mean (log10) (hypoxanthine [1]): 0.422 ± 0.041
normalized RNA/DNA level with ligand (log10) (hypoxanthine [2]): 1.9477 ± 0.0019
normalized RNA/DNA level without ligand (log10) (hypoxanthine [3]): 1.72 ± 0.019
FACS-Seq fitted mean (log10) (hypoxanthine [4]): 0.533 ± 0.044

GCUGUCACCGGUGUAUUACCCUAGUGGUCGACCGGUCUGAUGAGUCUUGCCUCAGACGAAACAGC [UGCCUC]
FACS-Seq fitted mean (log10) (hypoxanthine [1]): 0.735 ± 0.008
normalized RNA/DNA level with ligand (log10) (hypoxanthine [2]): 2 ± 0.064
normalized RNA/DNA level without ligand (log10) (hypoxanthine [3]): 2.01 ± 0.023
FACS-Seq fitted mean (log10) (hypoxanthine [4]): 0.659 ± 0.051

GCUGUCACCGGUGUAUUACCCUAGUGGUCGACCGGUCUGAUGAGUCUUGCCUAAGACGAAACAGC [UGCCUA]
FACS-Seq fitted mean (log10) (hypoxanthine [1]): 0.664 ± 0.022
normalized RNA/DNA level with ligand (log10) (hypoxanthine [2]): 1.94 ± 0.039
normalized RNA/DNA level without ligand (log10) (hypoxanthine [3]): 1.929 ± 0.0053
FACS-Seq fitted mean (log10) (hypoxanthine [4]): 0.57 ± 0.049

GCUGUCACCGGUGUAUUACCCUAGUGGUCGACCGGUCUGAUGAGUCUGCUCGGAGACGAAACAGC [GCUCGG]
FACS-Seq fitted mean (log10) (hypoxanthine [1]): 0.247 ± 0.027
normalized RNA/DNA level with ligand (log10) (hypoxanthine [2]): 1.88 ± 0.074
normalized RNA/DNA level without ligand (log10) (hypoxanthine [3]): 1.4 ± 0.022
FACS-Seq fitted mean (log10) (hypoxanthine [4]): 0.851 ± 0.056

GCUGUCACCGGUGUAUUACCCUAGUGGUCGACCGGUCUGAUGAGUCUGGUACGAGACGAAACAGC [GGUACG]
FACS-Seq fitted mean (log10) (hypoxanthine [1]): 0.173 ± 0.027
normalized RNA/DNA level with ligand (log10) (hypoxanthine [2]): 1.88 ± 0.031
normalized RNA/DNA level without ligand (log10) (hypoxanthine [3]): 1.49 ± 0.016
FACS-Seq fitted mean (log10) (hypoxanthine [4]): 0.506 ± 0.019

GCUGUCACCGGUGUAUUACCCUAGUGGUCGACCGGUCUGAUGAGUCUAGGCAUAGACGAAACAGC [AGGCAU]
FACS-Seq fitted mean (log10) (hypoxanthine [1]): -0.0543 ± 0.062
normalized RNA/DNA level with ligand (log10) (hypoxanthine [2]): 1.92 ± 0.067
normalized RNA/DNA level without ligand (log10) (hypoxanthine [3]): 1.8 ± 0.047
FACS-Seq fitted mean (log10) (hypoxanthine [4]): 0.027 ± 0.034

GCUGUCACCGGUGUAUUACCCUAGUGGUCGACCGGUCUGAUGAGUCUGUAAGGAGACGAAACAGC [GUAAGG]
FACS-Seq fitted mean (log10) (hypoxanthine [1]): 0.181 ± 0.047
normalized RNA/DNA level with ligand (log10) (hypoxanthine [2]): 1.87 ± 0.042
normalized RNA/DNA level without ligand (log10) (hypoxanthine [3]): 1.38 ± 0.015
FACS-Seq fitted mean (log10) (hypoxanthine [4]): 0.408 ± 0.026

GCUGUCACCGGUGUAUUACCCUAGUGGUCGACCGGUCUGAUGAGUCUAGACCCAGACGAAACAGC [AGACCC]
FACS-Seq fitted mean (log10) (hypoxanthine [1]): 0.552 ± 0.035
normalized RNA/DNA level with ligand (log10) (hypoxanthine [2]): 1.94 ± 0.0097
normalized RNA/DNA level without ligand (log10) (hypoxanthine [3]): 1.92 ± 0.02
FACS-Seq fitted mean (log10) (hypoxanthine [4]): 0.516 ± 0.11
